Source: PMC7849316, “Tyrosine phosphorylation regulates hnRNPA2 granule protein partitioning and reduces neurodegeneration” (The EMBO Journal, 2020)

Biological target: T1, ch‐TOG (CKAP5) TOG domain 1 (TOG D1, residues 1–250) (UniProt Q14008 1-250, AlexaFluor 555 or 405 (NHS ester) on ~1% of the protein in the droplet assays; 2H 15N labeled for the PRE experiments)
T1 construct: microtubule-associated protein ch-TOG (CKAP5), TOG domain 1, residues 1–250; also called TOG domain 1 (D1); source: E. coli BL21 Star (DE3), purified (HisTrap, Superdex 75, TEV cleavage, second HisTrap)
T1 sequence (Q14008 1-250): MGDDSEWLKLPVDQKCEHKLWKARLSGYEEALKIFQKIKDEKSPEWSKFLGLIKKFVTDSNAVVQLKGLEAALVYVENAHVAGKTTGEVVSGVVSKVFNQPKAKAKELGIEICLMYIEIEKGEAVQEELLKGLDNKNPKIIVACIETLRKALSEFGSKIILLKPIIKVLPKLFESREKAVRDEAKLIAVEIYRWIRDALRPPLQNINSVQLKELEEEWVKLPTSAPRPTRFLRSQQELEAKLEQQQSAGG
Assay: NMR paramagnetic relaxation enhancement (PRE); TROSY-based 1HN R2 at 850 MHz, 25°C; NMR-invisible hnRNPA2 LC with a paramagnetic label at S285C or S329C mixed with 2H 15N TOG D1; paramagnetic against diamagnetic samples
Details: both partners purified

Row | Kd [µM] | Binder
1 | > 100 | hnRNPA2 LC S285C with a paramagnetic label (MTSL) at the engineered cysteine (domain or fragment, human, UniProt P22626-2 190-341, looked up, small (~120 Da) paramagnetic label (MTSL) at the engineered cysteine 285, hnRNPA2 low complexity domain, human, residues 190–341; Purified and labeled as described in Ryan et al, 2018; source: E. coli BL21 Star (DE3), purified from inclusion bodies (His-tag purification), MTSL-labeled) GRGGNFGFGDSRGGGGNFGPGPGSNFRGGSDGYGSGRGFGDGYNGYGGGPGGGNFGGSPGYGGGRGGYGGGGPGYGNQGGGYGGGYDNYGGGNYGCGNYNDFGNYNQQPSNYGPMKSGNFGGSRNMGGPYGGGNYGPGGSGGSGGYGGRSRY
2 | > 100 | hnRNPA2 LC S329C with a paramagnetic label (MTSL) at the engineered cysteine (domain or fragment, human, UniProt P22626-2 190-341, looked up, small (~120 Da) paramagnetic label (MTSL) at the engineered cysteine 329, hnRNPA2 low complexity domain, human, residues 190–341; Purified and labeled as described in Ryan et al, 2018; source: E. coli BL21 Star (DE3), purified from inclusion bodies (His-tag purification), MTSL-labeled) GRGGNFGFGDSRGGGGNFGPGPGSNFRGGSDGYGSGRGFGDGYNGYGGGPGGGNFGGSPGYGGGRGGYGGGGPGYGNQGGGYGGGYDNYGGGNYGSGNYNDFGNYNQQPSNYGPMKSGNFGGSRNMGGPYGGGNYGPGGCGGSGGYGGRSRY
